Measured values: patent publication EP2767548A2

Target: Human CD16 (biotinylated, Sino Biological Inc, cat#10389-H27H1-B) (human) (UniProt P08637)
Test: ELISA, biotinylated CD16 captured on neutravidin, anti-human Fab-HRP detection

Human CD16 (biotinylated, Sino Biological Inc, cat#10389-H27H1-B) (human), sequence (P08637 17-208): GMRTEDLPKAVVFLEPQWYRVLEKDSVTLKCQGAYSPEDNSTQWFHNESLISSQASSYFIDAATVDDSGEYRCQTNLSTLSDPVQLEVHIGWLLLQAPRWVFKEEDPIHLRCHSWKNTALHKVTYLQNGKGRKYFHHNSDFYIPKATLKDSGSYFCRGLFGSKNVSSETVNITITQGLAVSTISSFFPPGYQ

- EC50: 6.15 µg/mL
Substance: Synagis (antibody)
